Measurements reported in patent US20250019450A1 (DIAGONAL THERAPEUTICS, published 2025).
Numbering of substitutions follows the chain as printed. Values belong to the binder of their own block, whether it stands above or below them.

Experiments:
[1] = biological target: T1, cyno IL-12RB1 with C-terminal FLAG tag, transiently expressed on HEK-293T cells (cyno, UniProt A0A2K5VWV1 24-662); experiment: FACS, periplasmic extract, HEK-293T
T1 construct: whole, on cells

[2] = biological target: T2, human IL-12RB1 with C-terminal FLAG tag, transiently expressed on HEK-293T cells (human, UniProt P42701 24-662); experiment: FACS, periplasmic extract, HEK-293T
T2 construct: whole, on cells

[3] = biological target: T3, human IL-12Rβ1-his (Acro Biosystems), biotinylated (human, UniProt P42701 24-545, biotinylated); experiment: ELISA, periplasmic extract
T3 construct: bought; captured on Neutravidin in the ELISA; also called Bio-huIL-12Rβ1-His

FOB [1]: 19 fold
FOB [2]: 48 fold
OD450 nm [3]: 0.413
B1: VHH41B1 (VHH)
VHH: EVQLVESGGGLVQAGGSLRVACAASGRTFSTYAMAWFRQAPGKEREFVAHILWSGGSTVYPDSVRGRFTISRDNAKNTVYLQMNSLKPEDTAVYYCAQKSGRQVYRIDSWDSFDYWGQGTSVTVSS

FOB [1]: 82 fold
FOB [2]: 88 fold
OD450 nm [3]: 2.93
B2: VHH67B1 (VHH)
VHH: QVQLVESGGGLVQAGGSLRLSCAASARIFNSYAVAWFRQTPGKEREFVASISWSGGSTNYADSVKGRFTISRDNAKNTVFLQMNSLKPADTAVYYCAADRNYYPSVLGKYTYWGQGTQVTVSS

FOB [1]: 36 fold
FOB [2]: 78 fold
OD450 nm [3]: 3.12
B3: VHH245B1 (VHH)
VHH: QVQLQESGGGLVQAGGSLRLSCAASGSIASINAMGWYRQAPGKQRDFVARIQLSGQTSYAHSVRGRFTISRDNAKNTVYLQMNNLKPEDTAVYVCAASNTGSLYGLRNYWGQGTQVTVSS

FOB [1]: 120 fold
FOB [2]: 117 fold
OD450 nm [3]: 1.98
B4: VHH72B1 (VHH)
VHH: EVQLVESGGGLVQAGGSLRLSCAASGLTFRNYAMAWFRQAPGKEREFVAGITWGGGLTHYVDSVKGRFTISRDNGKNTVYLQMNSLKSEDTAVYYCAGKTQGSTWYHLTPDGYDYWGQGTQVTVSS

FOB [1]: 88 fold
FOB [2]: 80 fold
OD450 nm [3]: 2.84
B5: VHH136B1 (VHH)
VHH: QVQLQESGGGLVQAGGSLRLSCAAPGRYAVGWFRQAPGKEYEFVAAITVSGGSKYYEDSVKGRFTISRDNAKNTVYLEMNSLKAEDTAVYYCAARTPKFGSGWYNRRGEYDYWGQGTQVTVSS

FOB [1]: 50 fold
FOB [2]: 75.1 fold
OD450 nm [3]: 3.14
B6: VHH172B1 (VHH)
VHH: B5 VHH with Q5V, T120A

FOB [1]: 88 fold
FOB [2]: 82 fold
OD450 nm [3]: 3.03
B7: VHH58B1 (VHH)
VHH: B5 VHH with Q5V, T65A, E78Q

FOB [1]: 62 fold
FOB [2]: 101 fold
OD450 nm [3]: 1.9
B8: VHH115B1 (VHH)
VHH: QVQLVESGGGLVQAGGSLRLSCLASGRTSNYFMGWFRQAPGKEREFVAAISRSGGGTWYADSVKGRFAISRDNAKNTVNLQMNSLKREDTAVYYCAADRRTGTSVYTVDEYDYWGQGTQVTVSS

FOB [1]: 99 fold
FOB [2]: 133 fold
OD450 nm [3]: 0.409
B9: VHH97B1 (VHH)
VHH: QVQLVESGGGLAQAGGSLRLSCAASGRTFSNDDMAWFRQAPGKEREFVAHIDRNAASTNYADSVKGRFTISRDNAKNTVYLQMTRLKPEDTAVYYCAADPDHFGTTWYQQYTYWGPGTQVTVSS

FOB [1]: 161 fold
FOB [2]: 152 fold
OD450 nm [3]: 2.97
B10: VHH104B1 (VHH)
VHH: EVQLVESGGGLVQPGGSLRLFCAASRSIFNINIMGWYRQAPGKQREWLASITSGGSTFYADSVKDRFTISRDSVKNTVYLQMNSLKPEDTAAYYCNRYRSVPLNTVYPWGQGTLVTVSS

FOB [1]: 68 fold
FOB [2]: 80 fold
OD450 nm [3]: 1.19
B11: VHH174B1 (VHH)
VHH: QVQLVESGGGAVQAGGSLRLSCAASGLTSRHYVMAWFRQAPGIEREFVASIWWGGSTYYADSVKDRFTISRDNAENTVYLQMNSLKPEDTAVYRCAVGTKIGTMGPRYDYWGQGTQVTVSS

FOB [1]: 19 fold
FOB [2]: 43 fold
OD450 nm [3]: 0.822
B12: VHH54B1 (VHH)
VHH: QVQLVESGGGLVQAGGSLRLSCAASGGPFSGYVMGWFRQVSGKEREFVAGITGISSTYFADSVKGRFTISRDNAKNMVYLQMNSLKPEDTAVYYCAAVNSFGVIPTSPNGMDYWGKGTLVTVSS

FOB [1]: 64 fold
FOB [2]: 104 fold
OD450 nm [3]: 0.422
B13: VHH86B1 (VHH)
VHH: QVQLVESGGGLMQAGGSLRLSCALSRGIFSAYAMGWFRQVQGKEREFVSGISRSGSTTDYVDTAKGRFTISRDNARDTVYLQMNSLKPEDTAVYYCAAVTGTFPSSTYHNANAYHHWGQGTQVTVSS

FOB [1]: 152 fold
FOB [2]: 116 fold
OD450 nm [3]: 3.31
B14: VHH137B1 (VHH)
VHH: QVQLVESGGGLVQAGGSLRLSCAASGRTFRTYAMGWFRQAPGKDREVVGIAAWKVASTYYVDYGDSVRGRFTISRDDAKSTVYLQMNNLMPEDTAVYYCAAGAFRTDWRSYAYWGQGTQVTVSS

FOB [1]: 58 fold
FOB [2]: 78 fold
OD450 nm [3]: 2.93
B15: VHH195B1 (VHH)
VHH: QVQLVESGGGLVQAGGSLRLSCAASGRTFGTYAMGWFRQAPGKERDFVARISNSGAFTHYADSVKGRFTISRDNAKNTVYLHMNSLENGDTAAYYCVATRGTNSAYYTRSTMYEYWGQGTQVTVSS

FOB [1]: 129 fold
FOB [2]: 78 fold
OD450 nm [3]: 1.28
B16: VHH32B1 (VHH)
VHH: EVQLVESGGGLVQPGGSLRLSCAASGFTFQNYAMSWLRKAPGEGLEWVSVINSGGGSTLYADSVKGRFTISRDNAKNTLYLQMHSLKSEDTAVYFCAKRRDDSTFGSLLYTHRGQGTQVTVSS

FOB [1]: 106 fold
FOB [2]: 132 fold
OD450 nm [3]: 0.151
B17: VHH50B1 (VHH)
VHH: QVQLVESGGGLVQAGGSLRLSCAASGRAFSRYSMGWFRQAPGKEREFVAANYWSNGWTDYADTVKGRFSISRDNAKNTVYLQMNSLKPEDTAVYYCAGRSSSIPSADVVGYDYWGQGTQVTVSS

FOB [1]: 184 fold
FOB [2]: 260 fold
OD450 nm [3]: 2.73
B18: VHH108B1 (VHH)
VHH: EVQLVESGGGLVQPGGSLTLSCTASGFRFSDRSMGWYRQAPGKQRELVAAITVGGSTNYADSVKGRFTISRDNAKNTVYLQMNSLKPEDTALYYCNRRYPPDDYWGQGTQVTVSS

FOB [1]: 44 fold
FOB [2]: 50 fold
OD450 nm [3]: 3.33
B19: VHH238B1 (VHH)
VHH: QLQLVESGGGLVQPGGSLRLSCAASGFTFSSYGMSWVRQAPGKGLEWVSYISAGGGTTTYVDFVKGRFTISRDNAKNMLYLQMNSLKPEDTAVYYCVHAADGSRGQGTQVTVSS

FOB [1]: 21 fold
FOB [2]: 24 fold
OD450 nm [3]: 2.85
B20: VHH154B1 (VHH)
VHH: QVQLQESGGGLVQVGDSLRLSCVASGRIFGVNTRAWYRQAPGNQRELVAQISSGGNINYADSVKGRFTISMDKFTDTVYLQMNSLKPEDTAIYRCAAHRQHPYADVWGQGTQVSVSS

FOB [1]: 42 fold
FOB [2]: 86 fold
OD450 nm [3]: 0.125
B21: VHH187B1 (VHH)
VHH: EVQLVESGGGLVQPGGSLRLSCAASGFTLDYYAIGWFRQAPGKEREGVSCISSSDRSTWYADSVKGRFTISRDNAKNTVYLQMHSLKPEDTAVYYCATPCYSDYDPEGYEYDYWGQGTQVTVSS

FOB [1]: 81 fold
FOB [2]: 146 fold
OD450 nm [3]: 0.349
B22: VHH233B1 (VHH)
VHH: QVQLVESGGGLVQAGGSLRLSCAASRSISSFNEMAWYRQAPGEQRELVATIVSTVGFTNYADSVKGRFTISRDNAKNTVYLQMNSLKAEDTAVYYCNARRISTDYWGQGTQVTVSS
